Measured values from the RNAGym collection of RNA variant scans (doi:10.1073/pnas.2313332121).

B1: TPR t1 (parent)
chain: GACCAAUCUGCCCUCAGAGCUCGAGAACAUCUUCGGAUGCAGAGGAGGCAGGCUUCGGUGGCGCGAUAGCGCCAACGUCCUCAACCUCCAAUGCAUCCCACCACAUGAUGAUGCCUGAAGAGCCUUGGUUUUUUG

Variants of: B1
Assay: polymerase ribozyme fitness, log enrichment relative to wild type (log ratio); higher = more active; in vitro selection for triplet polymerase activity
How it was run: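 Streptavidin-bead capture of gel-excised extended constructs, followed by RT-PCR, closed a single triplicate in vitro selection round. That round began by annealing PCR-built, transcribed mutant libraries of each subunit of a heterodimeric triplet polymerase ribozyme with a biotinylated primer, the partner subunit and triplets, then incubating them frozen at −7 °C. After Illumina sequencing of inputs and outputs, genotypes needed ≥10 input reads and ≥1 read per output. Fitness is the base-2 logarithm of genotype enrichment over wild-type enrichment, using inverse-variance-weighted replicate averages.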

Row | Variant | polymerase ribozyme fitness (log ratio)
1 | A46C G57A C62G A121G | -1.34
2 | A46G G60U | -0.448
3 | G45U C72A C88A G93A G107U A111C | -5.12
4 | G45U G51A G52U | -4.66
5 | A46G G61A A100C U132C | -0.683
6 | A46C C56G C72G U87A A100U | -1.12
7 | A46U G71U | -1.16
8 | A46C C56U G63A C114G G127C U129A | -5.93
9 | A46U U55A G69A U125A | -4.29
10 | G45U C123U G127U | -1.39
11 | A46U G47A G127C | -3.12
12 | A46G U78A U112G | 0.172
13 | G45U C73U C79A | -2.93
14 | A46U U131C | -1.72
15 | A46U C64U C99U | -4.36
16 | A46U U78C G113A | -2.45
17 | G45U G135U | -2.03
18 | A46G G63U A121U U126A | 0.154
19 | A46C U87A C123U U132A | 1.86
20 | G45U C64U U81A | -2.88
21 | A46U G63C U112C G117C A121U | -3.75
22 | G45U U106A U129C | -1.68
23 | A46G A90G C101U U106A | -0.372
24 | A46U G71C U78A C86A | -1.63

Row | Variant | polymerase ribozyme fitness (log ratio)
25 | A46U C53U A84C C88U | -1.14
26 | G45U C64U | -0.713
27 | G45U G69A | -4.29
28 | A46U C89U A111U | -5.27
29 | A46U A91G C123G | -1.65
30 | A46U U59C G93A U130C | -2.04
31 | A46C G47A C53A G60A C73G | -1.61
32 | A46G A74C U133A | -0.745
33 | G45C U130C | -2.26
34 | A46C G48U G113A | -3
35 | G45C U126A | -2.8
36 | A46U G135U | -1.71
37 | A46U G135C | -1.33
38 | A46U C104U | -0.991
39 | A46U C124A | 0.552
40 | A46U A121U | 0.389
41 | G45U G77U G93U G120U | -3.3
42 | A46U C49U | -1.49
43 | A46C C53U C56A U112A | 0.259
44 | A46U C62G C88A C124A U133G | -4.11
45 | A46U C53U G69C U87C | -2.13
46 | A46U C76G | -1.01
47 | G45U C123U | -0.952
48 | A46U C79U U96A C115U C123G U132A | -2.94

Row | Variant | polymerase ribozyme fitness (log ratio)
49 | A46G C73U U87A A91C G113A | -2.54
50 | A46C C53U U54G G71U G120U | -0.575
51 | G45U C70A C123U | -1.23
52 | A46U C62G C88A C124A | -4.36
53 | A46U U54G C72A C82A G110U | -4.48
54 | A46U G117A | -2.21
55 | A46U G117A U133G | -2.73
56 | G45U G60U | -0.287
57 | G45U A84C C86A G117A | -3.94
58 | A46U C56U C114A | -2.28
59 | A46C C115G G117A | -4.09
60 | A46C A100U U131G | -1.22
61 | A46G G47U G120U U132A | -1.09
62 | G45U A50G | -1.25
63 | A46G C53A | -0.35
64 | A46U G48A | -2.28
65 | A46U C70G | -4.75
66 | A46U G52U G71U C123A | -2.41
67 | A46G A66U C73A C82G | -2.3
68 | A46G A50G | 0.425
69 | G45U C85G G122A | -3.83
70 | A46U C115U | -2.18
71 | A46G C64U | -0.426
72 | G45U C53A G61C | -5.95

Row | Variant | polymerase ribozyme fitness (log ratio)
73 | G45U G47A U116C | -5.47
74 | A46U A111C C124G U131A U132C | -0.582
75 | A46G C53A G135U | -1.55
76 | A46U A90C U133A | -1.74
77 | A46U G52U C123A | -3.01
78 | G45U G93C | -0.927
79 | G45U G47U G60A C98G | -7.59
80 | A46U C70A C85U | -3.76
81 | A46G U59A | -0.58
82 | G45C U92A | -3.97
83 | G45U C72U U87A | -1.19
84 | A46C C86U A95G C114G | -3.71
85 | A46U G63C | -1.29
86 | A46C C70U C101U | -1.31
87 | A46U U109A | -6.04
88 | G45U C86U U87A C124U U130C | -1.19
89 | G45U G63A | -2.32
90 | A46U G69A | -3.54
91 | A46U G69U | -0.372
92 | A46G A105C | -1.62
93 | G45U U59G U112A | -0.539
94 | G45U C72U G120A | -0.418
95 | A46U A103C C115G | -6.95
96 | A46U C64U A90U U96A U106A U131A | -3.76

Row | Variant | polymerase ribozyme fitness (log ratio)
97 | A46C U87A A91C U96A | -2.01
98 | A46C C56G C70A | -5.02
99 | A46U G61A | 0.101
100 | A46G C72G C85G | -4.41
101 | G45U A91C | -2.07
102 | G45U A74G U132A | -2.04
103 | G45U U112A | 0.359
104 | A46U G110U G120C G122A | -5.9
105 | A46C C49U A83U | -4.1
106 | A46U G48U C76A U78C C82U | -5.9
107 | G45U G61C | -2.72
108 | G45U G61A | -2.11
109 | A46G G57A C73U A83G U112C | -0.119
110 | A46U G77C | -1.54
111 | A46G U55G | 0.201
112 | G45U U78G C88U | -1.1
113 | A46C C49U A121U | 0.936
114 | A46U C102U | -4.01
115 | A46G A90G | 0.482
116 | G45U G52A C62U U96G | -2.4
117 | G45U G48A | -1.51
118 | A46G C73U C88A U130A | -3.03
119 | A46C G48A C101U G110C | -6.49
120 | A46U C114U | -2.76

Row | Variant | polymerase ribozyme fitness (log ratio)
121 | A46C G47A A50G C97A A121G C124G | -5.64
122 | G45U C94U C102U | -3.33
123 | A46U C99U | -4.49
124 | G45U A46C G127C | -2.82
125 | A46G A50G U87C | -0.00584
126 | A46U C82U | -1.14
127 | G45U G110U | -2.75
128 | G45U U106A | -1.76
129 | A46G A103U U125A | -5.23
130 | G45U G48A G69U | -0.269
131 | G45U C89U U92A U106A U133G | -3.32
132 | A46U A74U A91G | -3.52
133 | A46G G69U | 0.473
134 | A46U A66G G77A | -1.99
135 | A46U C56A | -1.15
136 | A46U A66C C123G C124A | 0.0849
137 | A46U C94G C98U | -4.76
138 | G45U G63A U78G G120C | -1.71
139 | A46C C62U C86U C97U A111U C124U | -5.27
140 | G45U C64U G77U C79U C114G | -4.61
141 | G45U C56A C73G | -2.79
142 | A46U U92C A100U G113C | -4.52
143 | G45U G63U G113A | -3.01
144 | G45U A50U A84U G117C | -7.49

Row | Variant | polymerase ribozyme fitness (log ratio)
145 | A46G G113U | -2.95
146 | G45U C104U C124A | -1.14
147 | A46U C70G C85U C104G | -7.09
148 | G45U G93U A100C C104A | -6.03
149 | A46C G48A | -1.9
150 | A46U G61A G110U G120C G122A | -4.73
151 | G45U C114U | -3.17
152 | G45U C56U G122U U129C | -1.59
153 | G45U C56G G77A C101U U112C | 0.372
154 | G45U C53A C72U C89G | -1.72
155 | G45U G71A | -2.09
156 | A46G C124U | 0.675
157 | G45U C73U U87A A105U G135C | -2.69
158 | A46U G69U C115A | -0.295
159 | A46C C53A G77U | -0.585
160 | A46U G57C A84U C114U | -3.16
161 | G45U C73U G110A G122A G128C | -6.61
162 | A46C C102A G120U C123A | -2.45
163 | A46U G48A C79G C82U G120A C123A | -3.09
164 | G45U A50U C114A G135A | -5.32
165 | G45U C56A G128C | -5.66
166 | A46U C49U C72A A121C | 0.996
167 | A46G G47C U96A | -3.35
